Results reported in patent US20260167714A1 (COHERUS BIOSCIENCES, published 2026).
Positions count from the first letter of the chain named. Numbers in names are those of the source.

Key:
[1] = target: T1, human ILT4 expressed on cells (human, UniProt Q8N423 22-597); assay: cell-based or functional assay
[2] = target: T2, recombinant human ILT4 (LILRB2) (human, UniProt Q8N423 22-460); assay: KinExA, solution equilibrium, n-curve analysis
T2 construct: Bought protein (Acro Biosystems or R&D Systems); also called ILTR4
Experimental: Kinetic Exclusion Assay (KinExA®) was performed to measure the equilibrium binding affinity and kinetics between human ILT4 and four humanized LALA-Fc modified antibodies in solution. For affinity analysis, the equilibrium dissociation constant, KD, was experimentally determined and reflects the strength of the binding interaction. The rate of association, kₒₙ, was also experimentally determined, while the rate of dissociation, koff, is calculated based on the following equation: koff=KD×kₒₙ
The binding affinity (KD), association (kₒₙ), and dissociation rate constants (koff) were measured for 4 different Humanized LALA IgG antibodies to ILT4 using KinExA. An n-curve analysis of at least two different curves, run at two different CBP concentrations, was used to determine the KD of the interactions The ILT4 was used as the concentration reference for all curves. All of the binding systems have low error and well defined 95% confidence intervals giving confidence to the measurements: […]

LILRB4 = target: T3, LILRB4 (human, UniProt Q8NHJ6 22-259); assay: SPR, Biacore 8K, mAb captured on anti-human Fc, analyte injected
T3 construct: Bought protein; limits of the extracellular domain are marked by bold type not visible here; whole entry named; also called recombinant human LILRB4; ILT3
Experimental: (§1) SPR was used to determine the specificity of four humanized anti-ILT4 mAbs for binding to LILRB2 and to determine any cross-reactivity with nine other LILRA and LILRB family members. LILR proteins were purchased from Acro Biosystems or R&D Systems, with sequence provided below. The studies were performed with a Biacore 8K instrument using a CM4 sensor chip with a running buffer of HBS-P+, 100 μg/mL BSA. Anti-human Fc specific capture surfaces were prepared using standard amine coupling chemistry. MAb was captured to flow cell 2 with flow cell 1 serving as the reference flow cell. Each of the nine family members and LILRB2 were injected at 100 nM at 30 μL/min for 90 sec with 240 sec of dissociation. […] All sensorgrams were doubled-referenced during processing of the data.

LILRA2 = target: T4, LILRA2 (human, UniProt Q8N149 24-449); assay: as above
T4 construct: Bought protein; limits of the extracellular domain are marked by bold type not visible here; whole entry named; also called recombinant human LILRA2
Experimental: as §1

[3] = target: T1, human ILT4 expressed on cells; assay: flow cytometry, blockade of PE-HLA-A tetramer (5 ug/ml) binding to ILT4-CHO cells, Experiment 2 (table title prints HLA-G)
[4] = target: T1, human ILT4 expressed on cells; assay: flow cytometry on ILT4-CHO cells, unlabelled mAb titrated; competitor AF647-Hz45.01-LALA
Experimental: (§2) Competition binding assays were performed. […] Binding activities were measured by flow cytometry.
Anti-human ILT4 mAbs at various concentrations (0-15 μg/ml) were incubated with ILT4-CHO cells. Cells were washed and stained with AF647-Hz45.01-LALA. Cells were analyzed by flow cytometry.

[5] = target: T1, human ILT4 expressed on cells; assay: flow cytometry, blockade of PE-HLA-A tetramer (5 ug/ml) binding to ILT4-CHO cells, Experiment 3 (table title prints HLA-G)
[6] = target: T1, human ILT4 expressed on cells; assay: flow cytometry, blockade of PE-HLA-G tetramer binding to ILT4-CHO cells, Experiment 1
[7] = target: T1, human ILT4 expressed on cells; assay: flow cytometry, AF647-labelled mAb on ILT4-CHO cells
Experimental: AF647-Hz45.01-LALA and AF647-Hz156.03-LALA at various concentrations (0-10 μg/ml) were incubated with ILT4-CHO cells and analyzed by flow cytometry.

[8] = target: T2, recombinant human ILT4 (LILRB2); assay: SPR, Biacore T200, mAb captured on anti-Fc, ILT4 injected, medium resolution, 25 C
How it was run: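 Mouse, chimeric or humanized mAbs captured on anti-Fc surfaces (CM4 chip); ILT4 injected at 101 to 0.79 nM, 2-fold series, 90 s association, 1200 s dissociation. Run at 25° C in HBS-P+ pH 7.4 with 100 μg/ml BSA; double-referenced global 1:1 fit with mass-transport term, KD=koff/kon.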

[9] = target: T1, human ILT4 expressed on cells; assay: flow cytometry on ILT4-CHO cells, unlabelled mAb titrated; competitor AF647-Hz156.03-LALA
Experimental: as §2
Anti-human ILT4 mAbs at various concentrations (0-15 μg/ml) were incubated with ILT4-CHO cells. Cells were washed and stained with AF647-Hz156.03-LALA. Cells were analyzed by flow cytometry.

[10] = target: T2, recombinant human ILT4 (LILRB2); assay: SPR, high resolution kinetics, triplicate, LALA antibody
[11] = target: T1, human ILT4 expressed on cells; assay: cell-based or functional assay; remark: listed apart in the source
[12] = target: T1, human ILT4 expressed on cells; assay: flow cytometry, blockade of PE-HLA-A tetramer (5 ug/ml) binding to ILT4-CHO cells, Experiment 1 (table title prints HLA-G)

T2 sequence (Q8N423 other isoform, or with tags, fused parts or gaps limits assumed): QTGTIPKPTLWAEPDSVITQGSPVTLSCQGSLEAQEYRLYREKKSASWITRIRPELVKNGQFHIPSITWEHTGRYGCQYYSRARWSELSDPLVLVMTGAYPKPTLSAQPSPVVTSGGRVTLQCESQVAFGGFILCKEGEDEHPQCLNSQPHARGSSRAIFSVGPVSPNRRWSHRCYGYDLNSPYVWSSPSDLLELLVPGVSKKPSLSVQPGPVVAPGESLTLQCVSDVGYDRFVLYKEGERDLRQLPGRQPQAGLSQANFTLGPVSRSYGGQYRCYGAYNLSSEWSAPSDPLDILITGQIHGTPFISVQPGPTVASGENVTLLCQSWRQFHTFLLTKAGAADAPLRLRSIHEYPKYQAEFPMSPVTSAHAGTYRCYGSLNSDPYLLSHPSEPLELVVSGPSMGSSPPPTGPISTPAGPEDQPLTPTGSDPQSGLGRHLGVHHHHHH
T1 sequence (Q8N423 22-597): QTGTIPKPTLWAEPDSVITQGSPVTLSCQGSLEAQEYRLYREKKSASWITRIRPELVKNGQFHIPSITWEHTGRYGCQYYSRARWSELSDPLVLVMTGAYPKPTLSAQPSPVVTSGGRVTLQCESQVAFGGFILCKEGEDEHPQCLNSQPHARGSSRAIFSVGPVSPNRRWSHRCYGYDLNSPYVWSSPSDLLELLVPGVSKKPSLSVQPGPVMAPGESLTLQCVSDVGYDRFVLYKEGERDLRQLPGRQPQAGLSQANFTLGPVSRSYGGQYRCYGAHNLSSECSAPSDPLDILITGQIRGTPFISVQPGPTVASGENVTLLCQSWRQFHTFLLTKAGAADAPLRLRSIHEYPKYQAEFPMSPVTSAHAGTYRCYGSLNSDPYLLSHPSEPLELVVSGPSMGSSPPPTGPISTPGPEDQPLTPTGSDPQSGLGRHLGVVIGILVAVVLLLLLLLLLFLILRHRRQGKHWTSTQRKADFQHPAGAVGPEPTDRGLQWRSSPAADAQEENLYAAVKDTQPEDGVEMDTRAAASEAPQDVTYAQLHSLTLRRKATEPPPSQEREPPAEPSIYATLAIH
T3 sequence (Q8NHJ6 other isoform, or with tags, fused parts or gaps): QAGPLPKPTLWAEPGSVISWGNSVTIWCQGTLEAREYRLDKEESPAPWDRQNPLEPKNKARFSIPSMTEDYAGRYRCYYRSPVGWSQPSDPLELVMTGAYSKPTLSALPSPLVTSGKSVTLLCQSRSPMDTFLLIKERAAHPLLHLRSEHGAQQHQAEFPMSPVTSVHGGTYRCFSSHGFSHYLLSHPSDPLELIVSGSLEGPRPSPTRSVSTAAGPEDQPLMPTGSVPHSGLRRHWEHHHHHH
T4 sequence (Q8N149 other isoform, or with tags, fused parts or gaps): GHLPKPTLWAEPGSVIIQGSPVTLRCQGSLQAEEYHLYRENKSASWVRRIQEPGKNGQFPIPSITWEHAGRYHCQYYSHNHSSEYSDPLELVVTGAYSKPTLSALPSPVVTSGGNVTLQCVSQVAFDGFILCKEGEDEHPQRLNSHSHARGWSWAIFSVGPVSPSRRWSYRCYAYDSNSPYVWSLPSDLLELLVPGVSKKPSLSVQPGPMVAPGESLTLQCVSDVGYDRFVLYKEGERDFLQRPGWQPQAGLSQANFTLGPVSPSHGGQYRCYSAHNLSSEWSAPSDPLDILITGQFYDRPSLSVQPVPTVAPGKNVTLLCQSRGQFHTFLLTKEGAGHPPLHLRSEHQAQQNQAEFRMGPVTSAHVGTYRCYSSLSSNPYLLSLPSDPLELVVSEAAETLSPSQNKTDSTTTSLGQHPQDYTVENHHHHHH

B1: Hz45.01-LALA (antibody, human IgG1, kappa, L234A L235A, V domains shown)
VH: QVQLVQSGAEVKKPGASVKVSCKASGYTFTDYYMNWVRQAPGQRLEWIGDINPNNGGTSYNQKFKGRATITVDTSASTAYMELSSLRSEDTAVYYCARGGAELTGTYWYFDVWGQGTTVTVSS
VL: DIQMTQSPSSLSASVGDRVTITCRASENIYSNLAWYQQKPGKAPKVLVYGATNLADGVPSRFSGSGSGTEYTLTISSLQPEDFATYYCQHFWDSPFTFGGGTKVEIKR
notes: Humanized L45S4, human IgG1 L234A/L235A, kappa; also called Humanized 45_01; Hu IgG 45_01 LALA
With B1 the “EC50 value of IL-6 production, donor 4” value [1] was 0.00603 µg/mL, the “EC50 value of IL-6 production, donor 5” value [1] was 0.0159 µg/mL and the Kd [2] was 85.1 pM. For the same binder, the binding result (LILRB4) was “no binding (tested: 100 nM)”, the binding result (LILRA2) was “no binding (tested: 100 nM)” and the IC50 [3] was 0.122 µg/mL. For the same binder, the IC50 [4] was 0.31 µg/mL, the IC50 [5] was 0.109 µg/mL and the IC50 [6] was 0.198 µg/mL. The EC50 [7] was 162 µg/mL, the Kd [8] was 1270 pM and the koff [8] was 0.000418 s⁻¹. The kon [8] was 330000 M⁻¹ s⁻¹, the IC50 [9] was 0.381 µg/mL and the Kd [10] was 154 pM. The koff [10] was 0.000531 s⁻¹, the “EC50 value of TNFa production, donor 4” value [11] was 0.0138 µg/mL and the “EC50 value of TNFa production, donor 5” value [11] was 0.0185 µg/mL. For the same binder, the IC50 [12] was 0.106 µg/mL.

B2: Hz156.03-LALA (antibody, human IgG1, kappa, L234A L235A, V domains shown)
VH: QVQLVQSGAEVKKPGSSVKVSCKASGYTFTDYYMNWVRQAPGQGLEWIARIYPGVYRTHYNEKFKDRVTLTADKSTSTAYMELSSLRSEDTAVYYCARSGYYGGTYEEDAMDYWGQGTTVTVSS
VL: B1 VL with V46L, G50A, N53S, E70D, H90N, S94T, F96Y, G100Q
notes: Humanized L156S3, human IgG1 L234A/L235A, kappa
In the case of B2, the “EC50 value of IL-6 production, donor 4” value [1] is reported as 0.0082 µg/mL, the “EC50 value of IL-6 production, donor 5” value [1] is reported as 0.0213 µg/mL and the Kd [2] is reported as 9.16 pM. For the same binder, the binding result (LILRB4) was “no binding (tested: 100 nM)”, the binding result (LILRA2) was “no binding (tested: 100 nM)” and the IC50 [3] was 0.152 µg/mL. It also gave an IC50 [4] of 0.245 µg/mL, an IC50 [5] of 0.164 µg/mL and an IC50 [6] of 0.19 µg/mL. The EC50 [7] was 248 µg/mL, the kon [8] was 497000 M⁻¹ s⁻¹ and the IC50 [9] was 0.422 µg/mL. For the same binder, the Kd [10] was 5.7 pM, the koff [10] was 1.83e-05 s⁻¹ and the “EC50 value of TNFa production, donor 4” value [11] was 0.00724 µg/mL. The “EC50 value of TNFa production, donor 5” value [11] was 0.0236 µg/mL and the IC50 [12] was 0.149 µg/mL.
